Three substances from patent US20170327556A1, “CARTILAGE-BINDING FUSION PROTEINS” (Merrimack Pharmaceuticals, Inc., priority 2013, published 2017) can be followed below.

Data set [1] addresses T1, collagen type II (Homo sapiens, UniProt P02458).
T1 construct: purchased Chondrex Products, Redmond, Wash
As to the kind of experiment: ELISA binding of fusion proteins to collagen type II coated plates. To be noted: 6x-Histidine-tagged proteins, FIG. 2. Here is the method:
Specificity of proteins to collagen type II may be determined by measuring the ability of the protein to bind the collagen coated on an ELISA plate. Reacti-Bind® 96 well plates are coated overnight at 4° C. with 100 μl of collagen type II (Chondrex Products, Redmond, Wash.) with 1× supplied buffer. Plates are washed with PBS, 0.05% Tween-20 (PBST) and blocked for 1 hour at room temperature with 100 μl of Protein-Free Blocking Buffer (Pierce, Thermo Scientific). Plates are then washed with PBST and tapped dry. 50 μL, of protein in a dilution series is added to the wells and incubated for 1 hour at room temperature. The protein dilution series starts from 100 μM and includes ten additional three-fold dilutions in PBS and one blank (PBS). After plates are washed in PBS, 50 μL, of anti-human IGF-1 (Abcam) at 1:250 in PBST is added and plates are incubated for 1 hour rotating at room temperature. The plates are then washed with PBST and 100 μL, of 1:1000 anti-Rabbit-HRP (Cell Signaling Technology) in PBST for 1 hour at room temperature. […] The absorbance is measured at 450 nm and the resulting data is analyzed using GraphPad Prism®.
The binding of two anticipated type II collagen binding fusion proteins, GF-Fus5 (6x-Histidine-tagged) and GF-Fus6 (6x-Histidine-tagged) was measured as described above.
Background: In an ELISA, binding on a coated surface is turned into a signal by an enzyme label.

Data set [2] can be described thus: ELISA binding of fusion proteins to heparan sulfate coated plates. To be noted: 6x-Histidine-tagged proteins, FIG. 1A. Here is the method: (§1) The specificity of binding of fusion proteins to the polysaccharides heparan sulfate and chondroitin sulfate may be determined by measuring the ability of the proteins to bind polysaccharides coated on an ELISA plate. Heparin Binding Plates (BD Biosciences) are coated with 50 μl of 2-10 μg/mL concentration of heparan sulfate or chondroitin sulfate (Sigma-Aldrich®) and incubated overnight at room temperature. Plates are washed with PBS and blocked with 250 μl of 0.2% gelatin in PBS for 1 hour at 37 C. Plates are then washed with PBS and tapped dry. 50 μl of protein in a dilution series is added to the wells and incubated for 2 hours at 37 C. The protein dilution series starts from 100 nM and includes ten additional three-fold dilutions in PBS, 0.2% gelatin and one blank (PBS, 0.2% gelatin only). After the plates are washed in PBS, 50 μl of anti-human IGF-1 (Abcam) at 1:250 in PBST is added and the plates are incubated for 1 hour rotating at room temperature. Plates are washed with PBST and 100 μl of 1:1000 anti-Rabbit-HRP (Cell Signaling Technology®) in PBST is added to each well and the plate is incubated for 1 hour at room temperature. […] The absorbance is measured at 450 nm and the resulting data is analyzed using GraphPad Prism® (GraphPad Software, San Diego, Calif.). […]

Data set [3] in a line: ELISA binding of fusion proteins to chondroitin sulfate coated plates. The following applies: 6x-Histidine-tagged proteins, FIG. 1B. As to the method:
as §1

Data set [4] concerns bovine cartilage explants. As to the kind of experiment: In vitro joint disease model (IL-1), explanted bovine cartilage: ^35S-sulfate incorporation. It is filed as cell-based. The following applies: 4 and 12 day treatments, IL-1, FIG. 16.
Data set [5] in a line: Stability of GF-Fus3 in human synovial fluid (western blot). It is filed as in vitro ADME. Here is the method:
Synovial fluid was harvested from two human donors (see Table 14) within 24 hours of death, flash frozen and stored at −80° C. 2 μL of GF-Fus3 (0.45 mg/mL in PBS, Life Technologies Cat#10010-031) was added to 18 pt of synovial fluid (final GF-Fus3 concentration is 45 μg/mL) in a sealed 200 μL PCR tube and incubated at 37° C. for 0, 24, 48, 72, or 96 hours. Samples were diluted 1:10 in PBS and 10 μL (45 ng of GF-Fus3) was mixed with 3.3 μL of NuPAGE LDS Sample Buffer (Life Technologies, Cat# NP0007). GF-Fus3 standards were prepared at 100, 200, 400, 800, and 1600 ng/mL and 10 μL of each solution was mixed with 3.3 uL of NuPAGE LDS Sample Buffer. All samples and standards were loaded onto a 4-12% NuPAGE Bis-Tris Gel (Life Technologies, Cat# NP0321BOX), and run in NuPAGE MES SDS Running Buffer (Life Technologies, Cat# NP0002). Protein was transferred to a nitrocellulose membrane using an iBlot kit (Life Technologies, Cat# IB301001). Membrane was blocked in Odyssey Blocking Buffer (LI-COR, Cat#927-40000) for 1 hour at room temperature with agitation. Membrane was washed twice in PBS with 0.05% Tween20 (PBS-T) and incubated in 2 μg/mL anti-IGF-1 antibody (Millipore, Cat#05-172) overnight at 4° C. Membrane was washed three times in PBS-T and incubated with IRDye 800CW goat anti-mouse antibody (LI-COR, Cat#827-08364) diluted 1:2000 for 1 hour at room temperature. […]
A general note: Immunoblotting shows a protein as a band on a membrane.

T1 sequence (P02458 182-1241 limits assumed): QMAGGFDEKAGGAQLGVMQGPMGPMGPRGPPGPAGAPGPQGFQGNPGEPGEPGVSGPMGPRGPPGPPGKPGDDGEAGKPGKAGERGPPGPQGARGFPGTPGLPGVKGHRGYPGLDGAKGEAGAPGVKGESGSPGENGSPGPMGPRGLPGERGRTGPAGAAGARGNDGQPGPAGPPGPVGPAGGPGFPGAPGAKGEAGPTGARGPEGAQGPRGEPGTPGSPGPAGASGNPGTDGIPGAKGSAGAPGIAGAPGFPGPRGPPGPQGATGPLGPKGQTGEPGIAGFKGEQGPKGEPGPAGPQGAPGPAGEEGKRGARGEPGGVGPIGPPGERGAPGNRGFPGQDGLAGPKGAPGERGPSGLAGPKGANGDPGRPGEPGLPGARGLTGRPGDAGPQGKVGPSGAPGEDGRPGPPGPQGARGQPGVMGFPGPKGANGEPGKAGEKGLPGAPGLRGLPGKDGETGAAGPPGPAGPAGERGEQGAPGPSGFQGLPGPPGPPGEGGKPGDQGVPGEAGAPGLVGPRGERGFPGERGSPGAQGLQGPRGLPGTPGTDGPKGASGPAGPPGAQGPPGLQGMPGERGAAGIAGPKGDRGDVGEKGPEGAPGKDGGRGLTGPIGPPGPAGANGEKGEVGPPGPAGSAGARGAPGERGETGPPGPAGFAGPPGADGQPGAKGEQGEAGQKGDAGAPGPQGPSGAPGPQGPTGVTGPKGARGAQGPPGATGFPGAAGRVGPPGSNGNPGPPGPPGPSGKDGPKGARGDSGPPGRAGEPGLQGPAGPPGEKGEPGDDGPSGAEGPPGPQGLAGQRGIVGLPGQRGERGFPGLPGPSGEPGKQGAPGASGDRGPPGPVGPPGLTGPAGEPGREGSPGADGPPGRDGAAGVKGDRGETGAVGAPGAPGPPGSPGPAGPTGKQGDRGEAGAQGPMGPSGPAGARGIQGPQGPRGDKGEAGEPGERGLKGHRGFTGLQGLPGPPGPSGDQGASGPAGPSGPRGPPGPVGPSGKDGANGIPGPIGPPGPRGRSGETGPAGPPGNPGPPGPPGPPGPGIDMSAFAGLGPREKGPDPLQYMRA

“GF-Fus6: IGF-1(LR3) fused to CNA344 CB domain”: in data set [1], the “binding to collagen type II” value is recorded as “binding more strongly”.
Turning to “GF-Fus5: IGF-1(LR3) fused to CNA35 CB domain”, in data set [1], the “binding to collagen type II” value is reported as “bound to collagen type II”.
Regarding “GF-Fus3: C-terminal fusion IGF-1(LR3)-PRELP heparin binding domain”, the “binding to heparan sulfate” value in data set [2] is reported as “bound”. For the same substance, in data set [3], the “binding to chondroitin sulfate” value is “bound”. Moreover, the “cartilage matrix synthesis compared to GF-Fus3-His” value in data set [4] is reported as “equivalent”. For the same substance, the “protein degradation band at less than 7.5 kDa” value in data set [5] (45 ng loaded, after incubation in synovial fluid at 37° C.) was at most 1 ng. Besides, in data set [5] (96 hours of 37° C. incubation, donors with grade 1 and grade 3 cartilage degeneration), the “protein degradation in synovial fluid” value is “minimal protein degradation”.
